Each sequence was assayed on K4 kissing-loop RNA reporter (assay: apparent KD of K4 kissing-loop reporter; higher = weaker reporter binding). Conditions: Eterna round: R107; input ligand: FMN 200 uM.
Method: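 RNA-MaP round R107: designed RNA switches with theophylline, tryptophan, arginine or FMN aptamers are transcribed on-chip within common flanks. They are titrated with a labelled K4 kissing-loop RNA reporter in RNA-MaP buffer (100 mM Tris pH 7.5, 80 mM KCl, 4 mM MgCl2), without ligand or with the indicated ligand. Median apparent KD per design.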
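Note: bound reporter read as fluorescence of individual clusters on recovered sequencing chips by microscopy, with normalized cluster intensities fitted with a binding model.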

Row | Sequence | apparent KD of K4 kissing-loop reporter [nM]
1 | GGGCCAUGGUUUUUGCUAGUGAUGUUAGACCGAGGACCGGUACGGCCGCCACUCGGCAAGUCUUUCGUUAGAUCUCUGGGAAGUC [theeternabot_exclusion_KL_Trp_A_45] | 810
2 | ACAUCGGUUGAGAGUGAUGUUCCUUGUGUUCGAGGACCGGUACGGCCGCCACUCGGGUAGAAAAUAACAGAUGUGUUUGAUUUUU [BDazzled - #16 SS Tryptophan A] | 163
3 | GCCGUAGAUUGAAGGAGCGGCUUCAUCAAAUCUCUAGCCCACACCAGUGAUGUUGGUGUUAGCCAGGUAGGUCGCAAUCUACGGC | 421
4 | ACGAUCUUCGGCCUAUGAGUGAUGUUUAUGCGAGGACCGGUACGGCCGCCACUCGGGCGGUUAUUCACUACGCCUCUUCCGUCGA [theeternabot_exclusion_KL_Trp_A_37] | 900
5 | GCCGUAGAUUGAAGGAGCGACAUAAACGAUGUUCUGGUAGUGAUGUUACCUUAGCAGGCAUGUCAGGUAGGUCGCAAUCUACGGC | 238
6 | GUAGGAUGAGGAGGAGGAUGAAUUACUGAAGGAGCGCAUAUUUAUGCAGGUAGGUCGCGGUAAAGAAGUAUAGUGAUGUUAUAUA [SSArgA.I] | 410
7 | CCGCUGUAGUGCAUUAAGUGAUGUUUAGUGCAGGAUAUCUGGAAACAGAGAAGGGCACGUACUCGACGAGGCCAAUACAGCGGUU | 319
8 | AAGGUAUCUAGAUACAUUACUGAACUAGAUACCAGCAUCGAAAGAUGCCCUUGGCAGCUAGCAGUGAUGUUGCUAGCAAUAAGAA [Design3] | 121
9 | CCUAUCUCAUACGAUACCAGUGAAUUUAUGUUUAUUAGCAGUGAUGUUGCAUUCCAAGUACACCCUUGGCAGCGUAUGGGAUAGG [Ex Theophylline B K4 23] | 178
10 | ACAGUAGUGAUGUCUUUGAUAUUACUACUGCGAGGACCGGUACGGCCGCCACUCGCCCAUUUUUGGGUUGAGAGUGAUGUUCUCA [Skye_SS_TA2] | 594
11 | CAUUCUAAAUGCAGUGAUGUUGCAACUGAUACCAGUAUCGAAAGAUACCCUUGGCAGCGGAAAACCGCUACGUUUUUUUAGAAUG [Ex Theophylline A K4 23] | 264
12 | GGUAGCAUGGCGGCCGCCACUGCGAAUGACGGCCACGUGAAAGUUGCCGCAGAGUGAUGUUCUGGCAGGACCGGGCCAUGCUACC | 432
13 | GCGCGGGAGUGAUGUUCCAAGUGGUGUUAGCGAGGACCGGUACGGCCGCCACUCGUUACGGGCGGCCCGUAGGAUACACUGGCGC [Same State - Tryptophan A (Freestyle 18)] | 431
14 | GCUAUGGUAGGAAGGAGCGCUUAAUUAUUAAUAAGAGUGAUGUUCGAUAAUAAAUAUUUAUAGCAGGUAGGUCGCCUACUAUAGC [KL-SSArg B22] | 155
15 | GGCAUGGUGGCGCGGCUGCCAUGCGCUUGGGAGGAUAUGUUUCGUGACAGAAGGCCCAGUGAUGUUGGGUCUGUUCAAAAGGACU [Onrabe] | 447
16 | UGAUACCAGACUGAUACCAGCCAGUGAUGUUGGCUGAAAUCAGGGUCAAAGACCCUGUCUGGCCCUUGGCAGCAGUCUGGUAUCU [TheoBX 19 #SwitchBubble #StaticStem] | 329
17 | GCUAUGGUAGGAAGGAGCGCUAAUUUAUUUUUACGAGUGAUGUUCGGUAGUAGAUUGUUAAAGCAGGUAGGUCGCCUACUAUAGC [Arginine B K4 17] | 103
18 | AAAUAGAUCAGUCAACCAGUGAUGUUGGAAGGAGCGUGCGAAAGCACAGGUAGGUCGCCAGAAUAAAAUUGGCUGAUCAAAAUAA | 328
19 | AACUGUCAAGGACAACAUUACUGGAGUGAUACCAGCAUCGAAAGAUGCCCUUGGCAGCACUAACUUGCAGUGAUGUUGCAAGUAA [BrourdMod 6 - Jieux - Exclusion - Theophylline A] | 208
20 | CCACUAUUCUUGUCGGAGUGAUGUUCCGAUACCAGCAUAGAGAUGUGCCCUUGGCAGCGGUCUAUUCUACGCCCGUCUAUUUCAA [Somari] | 165
21 | AAUUAGCCGUAAGAAUAGUGAUGUUAUUCACGAGGACCGGUACGGCCGCCACUCGAUAUUGGAAUAUUGAAUUUUUUAUUCUAAA [JR_SSTryptoA_Sub009] | 524
22 | GCAACAUUGGGAGGAUAUCAUUCUGAGUGAUGUUCAGGGUUCAGCUAACGAAAGUUAGUUGUACCAUGAGAAGGCCUAAUGUUGC [Omei KL FMN B SS A v2] | 287

Row | Sequence | apparent KD of K4 kissing-loop reporter [nM]
23 | ACAUGUGCCAGUGAUGUUGGCGUACGUGAUACCAGACGAAUAAAAGUCCCUUGGCAGCACAAAUAAGCCAAGAUAGAUGAAUGAU [#03 K4 Theophylline A Exclusion] | 191
24 | GCAGUGAUGUUGCACGAGUACGGUAGAGUACGAGGACCGGUACGGCCGCCACUCGUACGGAACUGGCUAAUUUAUGGAAUGGUGA [II] | 383
25 | CGCCAUAACACGGCCGCCACUCAUCAAGCUCAGUGAUGUUGAGCAGCAGCUGCAAUCGCGAUUACGAGGACCGGGUGCUGUCUGU [theeternabot_sameState_KL_Trp_B_50] | 286
26 | UGUGUUUACCUGACUCAGUGAUGUUGAGAAGGAGCGUGCAAAUGCACAGGUAGGUCGCUCAACCUAAAUUCAGGUGAGCACUAAA | 321
27 | AGCAGCAAAUCCUAGUGAUGUUAGGAUAUGUAGGAUAUCGGGAUACCGAGAAGGACAGAAGGAGGAGUGAUGUUCCUCAGCUGCA [FmnAX 23 #DoubleAptamer #DoubleK4 #SwitchBubble] | 116
28 | AUUUUAAUCGCAGAUACCAGUCCAGAAUGAAUACUAUAGUGAUGUUAUAAUAAAGGGAAGGACCCUUGGCAGCUGUACUAUAUUA [AstrosSsTheB#9] | 467
29 | AAGCUCAGCGUGACUCGAUAAGAGUCACAACGAGGACCGGUACGGCCGCCACUCGAAAUAAGGGAGUGAUGUUCUCGCUGAGCAA [#SwitchBubble 5 #StaticStem #K4Late] | 348
30 | UAUAUACAUAGAUAGUUGUAUAUCGAGGAAGGAGCGUGCGCAGGCACAGGUAGGUCGCCUCAGCGCACGAGUGAUGUUCGUGGGC [Tezale] | 247
31 | AAGAGCUAGGCGGCCGCCACUAGAUGUGAACACAUACAAGCCAGUGAUGUUGGUAUGAUGGACGGUAGGACCGGGCCUAGCUGAA [Exclusion - Tryptophan B (Freestyle 12)] | 290
32 | GUCCACACUGCAGGAUAUGGAGAAGUAGCGAGGGAGUUUGGAAGCACACCUCUGGCAGUGAUGUUGCCAGAAGGGCGGUGCGGCG [Inlaindi] | 109
33 | GGCCACGGGCGAGGAUAUGGGCAUGAUUCAUCCUGGAGUGAUGUUCCAGGUCCUACGUUUCGAGCACCAGAAGGCGUUUGUUGCU [Biazaqure] | 166
34 | AUAAACUUGCAGUGAUGUUGCAAGUAAGACUAGGAUAUCAGGAAGCUGAGAAGGAGUCAUCUCCUUCAAACAUCACUAUGAAGGA [whbob_SS_FMNA__2th177] | 413
35 | UUUGGUAGCGGUGUUGAUUAGGGAGCGGAAGGAGCGCCGAGGAGGGCAGGUAGGUCGCCGGAAUGUAGUGAUGUUGCAUAGAGGU [ExArgA.Ab] | 269
36 | CCUAUCUCAUACGAUACCAGUGAAUUUAUAUUUAUAAGCAGUGAUGUUGCAUUCCAAGUACACCCUUGGCAGCGUAUGGGAUAGG [Ex Theophylline B K4 21] | 197
37 | AGACUACUGAUAGGAUAUAACAUACUACUCGUAUACCAAAGGUAUACGAGAACCCUUCUAGUGAUGUUAGAAGGGUCGGUAGUCA [Omei KL FMN B Exc B v7] | 82.6
38 | CAAUGAGUUUAAGAUGAUAUCAUCACAGAAGGAGCGAGUGAUAACUCAGGUAGGUCGCUGAAUUUGUCGAGUGAUGUUCGAUAGA [whbob_SS_Arginine_A_sa120] | 191
39 | UUUUAAUAAGAGGAUACCAGUACAAAUAAAGUACAUUAAUAGUAGAGUGAUGUUCUAAAGUACCCUUGGCAGCUUAGAGUAAGUU [ExTheophylB.B] | 123
40 | GUACCUUGGAAACAAGGACAGAUAACCGAAGGAGCGCGUGAAAACGCAGGUAGGUCGCGGAAGCAGUGAUGUUGCAAAAGAGAGC [Same State Arginine A GF 17] | 168
41 | GUUAAGUCGCGAAGGAGCGCGAACUAACAACGCAGUGAUGUUGCGUUGUACGUAGUAUAAUCGCAGGUAGGUCGCGCGACAGGCC [Arg B SS t16] | 116
42 | AGUGAUGUUGAGUGAUGUUAGUGAAGUGAUCGAGGACCGGUACGGCCGCCACUCGAGUGAUGAGUGAGUGAUGUUUGUUUAGUGA [hhbmullin] | 168
43 | GGAUUCGGCACGGCCGCCACUUCCGGUGGCUGGUGUCAUGGUGCGCGUGAGUGAUGUUUAUGUGGGAGGACCGGGUGUUGAGUCC [whbob_Ex_Tryp_B_w44] | 1020
44 | AAGAAGAAUGGAAGGAGCGAGCAGAUAUAACCAGUGAUGUUGGAAAGCCUUAUUGCUUAAGCUCAGGUAGGUCGCCAAGAAGAGA [whbob_Ex_Arginine_B_2t152] | 179

Same assay, conditions: Eterna round: R107; input ligand: arginine 13.2 mM

Row | Sequence | apparent KD of K4 kissing-loop reporter [nM]
45 | GGGCCAUGGUUUUUGCUAGUGAUGUUAGACCGAGGACCGGUACGGCCGCCACUCGGCAAGUCUUUCGUUAGAUCUCUGGGAAGUC [theeternabot_exclusion_KL_Trp_A_45] | 661
46 | ACAUCGGUUGAGAGUGAUGUUCCUUGUGUUCGAGGACCGGUACGGCCGCCACUCGGGUAGAAAAUAACAGAUGUGUUUGAUUUUU [BDazzled - #16 SS Tryptophan A] | 88.4
47 | GCCGUAGAUUGAAGGAGCGGCUUCAUCAAAUCUCUAGCCCACACCAGUGAUGUUGGUGUUAGCCAGGUAGGUCGCAAUCUACGGC | 313
48 | ACGAUCUUCGGCCUAUGAGUGAUGUUUAUGCGAGGACCGGUACGGCCGCCACUCGGGCGGUUAUUCACUACGCCUCUUCCGUCGA [theeternabot_exclusion_KL_Trp_A_37] | 435
49 | GCCGUAGAUUGAAGGAGCGACAUAAACGAUGUUCUGGUAGUGAUGUUACCUUAGCAGGCAUGUCAGGUAGGUCGCAAUCUACGGC | 133
50 | GUAGGAUGAGGAGGAGGAUGAAUUACUGAAGGAGCGCAUAUUUAUGCAGGUAGGUCGCGGUAAAGAAGUAUAGUGAUGUUAUAUA [SSArgA.I] | 343
51 | CCGCUGUAGUGCAUUAAGUGAUGUUUAGUGCAGGAUAUCUGGAAACAGAGAAGGGCACGUACUCGACGAGGCCAAUACAGCGGUU | 290
52 | AAGGUAUCUAGAUACAUUACUGAACUAGAUACCAGCAUCGAAAGAUGCCCUUGGCAGCUAGCAGUGAUGUUGCUAGCAAUAAGAA [Design3] | 109
53 | CCUAUCUCAUACGAUACCAGUGAAUUUAUGUUUAUUAGCAGUGAUGUUGCAUUCCAAGUACACCCUUGGCAGCGUAUGGGAUAGG [Ex Theophylline B K4 23] | 201
54 | ACAGUAGUGAUGUCUUUGAUAUUACUACUGCGAGGACCGGUACGGCCGCCACUCGCCCAUUUUUGGGUUGAGAGUGAUGUUCUCA [Skye_SS_TA2] | 345
55 | CAUUCUAAAUGCAGUGAUGUUGCAACUGAUACCAGUAUCGAAAGAUACCCUUGGCAGCGGAAAACCGCUACGUUUUUUUAGAAUG [Ex Theophylline A K4 23] | 369
